The record followed here is US12410245 (UNIVERSITY OF VIRGINIA PATENT FOUNDATION, dated 2025).

The target of assay [1] is FnIII9*10 (UniProt P02751). Nature of the assay: SPR (Biacore 2000), integrin immobilized, Fn fragment as analyte.
Assay [2] has as its target FnIII9-4G-10 (UniProt P02751). Described as above.
The next assay concerns the target T1, FnIII10-14 (UniProt P02751-8 1447-1901).
T1 construct: domain: FnIII10-14; also called FnIII10 (FnIII10-14); Fn fragment including the 10th type III repeat
Nature of the assay: SPR, Fn fragment immobilized; SPR, FnIII10-14 immobilized; fitted KD given in the text (FIGS. 9D and 9E).

The target in assay [3] is FnIII9-4G-10 (UniProt P02751). Nature of the assay: SPR, ratio of the KD values (107 nM on FnIII9*10 against 16 nM on FnIII9-4G-10).
Chain of FnIII9-4G-10 (P02751 other isoform, or with tags, fused parts or gaps): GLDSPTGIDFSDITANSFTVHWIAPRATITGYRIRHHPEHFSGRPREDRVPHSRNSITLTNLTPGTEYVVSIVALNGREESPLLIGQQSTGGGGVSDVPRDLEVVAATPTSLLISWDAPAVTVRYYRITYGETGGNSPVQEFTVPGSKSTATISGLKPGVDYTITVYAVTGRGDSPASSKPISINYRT
In assay [4] the target is FnIII9*10 (UniProt P02751). Nature of the assay: SPR.
Assay [5] has as its target FnIII9-4G-10 (UniProt P02751). Nature of the assay: SPR.
For the next assay, the target named is T2, FnIII6-9 (UniProt P02751-1 1085-1446, limits assumed).
T2 construct: domain: FnIII6-9; also called FnIII9 (FnIII6-9); Fn fragment including the 9th type III repeat
T2 sequence (P02751 other isoform, or with tags, fused parts or gaps limits assumed): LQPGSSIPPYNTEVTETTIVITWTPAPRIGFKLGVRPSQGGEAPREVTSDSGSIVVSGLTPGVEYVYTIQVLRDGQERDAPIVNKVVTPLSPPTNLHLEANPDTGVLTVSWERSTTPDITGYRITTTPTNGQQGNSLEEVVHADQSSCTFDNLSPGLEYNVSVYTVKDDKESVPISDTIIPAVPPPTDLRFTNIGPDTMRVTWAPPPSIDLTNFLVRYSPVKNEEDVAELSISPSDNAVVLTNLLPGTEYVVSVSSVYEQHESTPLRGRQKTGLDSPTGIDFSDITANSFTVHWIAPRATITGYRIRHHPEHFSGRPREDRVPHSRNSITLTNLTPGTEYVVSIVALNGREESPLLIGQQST
Nature of the assay: SPR, Fn fragment immobilized; SPR, FnIII6-9 immobilized (other target: fragment with the 9th repeat).

Assay [6] has as its target FnIII9-4G-10 (UniProt P02751). Nature of the assay: phage ELISA on maleimide plates (HRP anti-M13); absorbance (450 nm minus 650 nm) on 4G divided by absorbance on 9*10.

Substitutions are numbered along the chain they refer to. “And” between values parts separate entries of the source, which are not always exact repeats. Equal values may be shown once.

T1 sequence (P02751 other isoform, or with tags, fused parts or gaps limits assumed): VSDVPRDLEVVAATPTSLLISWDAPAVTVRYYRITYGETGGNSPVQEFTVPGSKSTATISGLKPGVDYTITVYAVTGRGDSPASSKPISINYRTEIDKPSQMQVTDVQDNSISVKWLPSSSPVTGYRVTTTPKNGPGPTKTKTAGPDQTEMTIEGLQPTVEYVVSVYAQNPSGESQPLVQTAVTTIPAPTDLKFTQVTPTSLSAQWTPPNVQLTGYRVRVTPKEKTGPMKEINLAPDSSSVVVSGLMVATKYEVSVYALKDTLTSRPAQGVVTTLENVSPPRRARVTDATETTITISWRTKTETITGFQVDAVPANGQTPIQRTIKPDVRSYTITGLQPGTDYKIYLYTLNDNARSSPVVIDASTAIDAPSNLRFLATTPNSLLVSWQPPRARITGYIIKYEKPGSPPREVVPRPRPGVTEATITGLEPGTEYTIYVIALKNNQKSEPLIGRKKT

Take “integrin αvβ3 (R&D Systems) (from UniProt P06756 31-992; P05106 27-718) (receptor)”: the Kd with FnIII9*10 [1] and with FnIII9-4G-10 [2] was 40 nM each time.

B1: H5 scFv (scFv)
scFv: EVQLLESGGGLVQPGGSLRLSCAASGFTFSSYAMSWVRQAPGKGLEWVSDIYDGGGTNYADSVKGRFTTSRDNSKNTLYLQMNSLRAEDTAVYYCAKTADNFDYWGQGTLVTVSSGGGGSGGGGSGGGGSTDIQMTQSPSSLSASVGDRVTITCRASQSISSYLNWYQQKPGKAPKLLIYAASTLQSGVPSRFSGSGSGTDFTLTISSLQPEDFATYYCQQANSAPTTFGQGTKVEIKRAAA
notes: Soluble scFv from E. coli, purified by Protein-A; also called clone H5; H5 antibody
For B1, the Kd with FnIII10-14 is 5100 nM; with FnIII9*10 [4] it was 107 nM; with FnIII9-4G-10 [5], 16 nM; in the assay with FnIII6-9 it was 34.8 nM. Further, in the assay with FnIII9-4G-10 [3], the selectivity of binding (fold, against FnIII9-10 as reference) was 10 fold. Moreover, in the assay with FnIII9-4G-10 [6], the 4G/9*10 Ratio was 1.21 and 1.02 and 1.06.

B2: H5 Modified Clone R1F8/R1H8 (scFv)
scFv: B1 scFv with A96T
In the case of B2, the 4G/9*10 Ratio with FnIII9-4G-10 [6] was 1.42 and 1.33.

B3: H5 Modified Clone R4B8 (scFv)
scFv: B1 scFv with D103Y
As to B3, the 4G/9*10 Ratio with FnIII9-4G-10 [6] was found to be 1.49.

B4: H5 Modified Clone R2G3 (scFv)
scFv: B1 scFv with P41S, N73D
With B4, the 4G/9*10 Ratio with FnIII9-4G-10 [6] came out at 2.53.

B5: H5 Modified Clone R1H6 (scFv)
scFv: B1 scFv with L78M
As to B5, the 4G/9*10 Ratio in the assay with FnIII9-4G-10 [6] is 1.62.
